# Assay results as given in IntAct's records for PubMed 15169888.
# B1: Nuclear factor NF-kappa-B p105 subunit (Homo sapiens), P19838-1 (parent)
# chain: MAEDDPYLGRPEQMFHLDPSLTHTIFNPEVFQPQMALPTDGPYLQILEQPKQRGFRFRYVCEGPSHGGLPGASSEKNKKSYPQVKICNYVGPAKVIVQLVTNGKNIHLHAHSLVGKHCEDGICTVTAGPKDMVVGFANLGILHVTKKKVFETLEARMTEACIRGYNPGLLVHPDLAYLQAEGGGDRQLGDREKELIRQAALQQTKEMDLSVVRLMFTAFLPDSTGSFTRRLEPVVSDAIYDSKAPNASNLKIVRMDRTAGCVTGGEEIYLLCDKVQKDDIQIRFYEEEENGGVWEGFGDFSPTDVHRQFAIVFKTPKYKDINITKPASVFVQLRRKSDLETSEPKPFLYYPEIKDKEEVQRKRQKLMPNFSDSFGGGSGAGAGGGGMFGSGGGGGGTGSTGPGYSFPHYGFPTYGGITFHPGTTKSNAGMKHGTMDTESKKDPEGCDKSDDKNTVNLFGKVIETTEQDQEPSEATVGNGEVTLTYATGTKEESAGVQDNLFLEKAMQLAKRHANALFDYAVTGDVKMLLAVQRHLTAVQDENGDSVLHLAIIHLHSQLVRDLLEVTSGLISDDIINMRNDLYQTPLHLAVITKQEDVVEDLLRAGADLSLLDRLGNSVLHLAAKEGHDKVLSILLKHKKAALLLDHPNGDGLNAIHLAMMSNSLPCLLLLVAAGADVNAQEQKSGRTALHLAVEHDNISLAGCLLLEGDAHVDSTTYDGTTPLHIAAGRGSTRLAALLKAAGADPLVENFEPLYDLDDSWENAGEDEGVVPGTTPLDMATSWQVFDILNGKPYEPEFTSDDLLAQGDMKQLAEDVKLQLYKLLEIPDPDKNWATLAQKLGLGILNNAFRLSPAPSKTLMDNYEVSGGTVRELVEALRQMGYTEAIEVIQAASSPVKTTSQAHSLPLSPASTRQQIDELRDSDSVCDSGVETSFRKLSFTESLTSGASLLTLNKMPHDYGQEGPLEGKI
# partner: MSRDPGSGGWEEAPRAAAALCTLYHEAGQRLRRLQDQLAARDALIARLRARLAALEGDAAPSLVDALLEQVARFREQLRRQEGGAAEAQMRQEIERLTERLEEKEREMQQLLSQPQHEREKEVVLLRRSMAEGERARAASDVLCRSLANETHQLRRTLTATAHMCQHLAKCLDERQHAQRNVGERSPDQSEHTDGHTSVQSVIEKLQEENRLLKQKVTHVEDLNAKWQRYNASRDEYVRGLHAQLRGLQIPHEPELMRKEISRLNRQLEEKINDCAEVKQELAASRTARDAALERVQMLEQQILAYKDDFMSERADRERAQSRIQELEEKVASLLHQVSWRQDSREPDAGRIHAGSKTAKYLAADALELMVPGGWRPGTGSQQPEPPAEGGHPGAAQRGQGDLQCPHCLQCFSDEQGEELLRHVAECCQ
# Variants of: B1
# Settings: with tnip2_human TNIP2, Q8NFZ5
row,effect of a mutation on the interaction,Variant
1,disrupting interaction,L841A
